The chains are these.
B1: sp¦P21912¦SDHB_HUMAN (protein, UniProt P21912 29-280, looked up)
Succinate dehydrogenase …: AQTAAATAPRIKKFAIYRWDPDKAGDKPHMQTYEVDLNKCGPMVLDALIKIKNEVDSTLTFRRSCREGICGSCAMNINGGNTLACTRRIDTNLNKVSKIYPLPHMYVIKDLVPDLSNFYAQYKSIEPYLKKKDESQEGKQQYLQSIEEREKLDGLYECILCACCSTSCPSYWWNGDKYLGPAVLMQAYRWMIDSRDDFTEERLAKLQDPFSLYRCHTIMNCTRTCPKGLNPGKAIAEIKKMMATYKEKKASV
B2: sp¦Q13451¦FKBP5_HUMAN (protein, UniProt Q13451 1-457, looked up)
Peptidyl-prolyl cis-trans …: MTTDEGAKNNEESPTATVAEQGEDITSKKDRGVLKIVKRVGNGEETPMIGDKVYVHYKGKLSNGKKFDSSHDRNEPFVFSLGKGQVIKAWDIGVATMKKGEICHLLCKPEYAYGSAGSLPKIPSNATLFFEIELLDFKGEDLFEDGGIIRRTKRKGEGYSNPNEGATVEIHLEGRCGGRMFDCRDVAFTVGEGEDHDIPIGIDKALEKMQREEQCILYLGPRYGFGEAGKPKFGIEPNAELIYEVTLKSFEKAKESWEMDTKEKLEQAAIVKEKGTVYFKGGKYMQAVIQYGKIVSWLEMEYGLSEKESKASESFLLAAFLNLAMCYLKLREYTKAVECCDKALGLDSANEKGLYRRGEAQLLMNEFESAKGDFEKVLEVNPQNKAARLQISMCQKKAKEHNERDRRIYANMFKKFAEQDAKEEANKAMGKKTSEGVTNEKGTDSQAMEEEKPEGHV
B3: sp¦Q04837¦SSBP_HUMAN (protein, UniProt Q04837 17-148, looked up)
Single-stranded DNA-binding …: ESETTTSLVLERSLNRVHLLGRVGQDPVLRQVEGKNPVTIFSLATNEMWRSGDSEVYQLGDVSQKTTWHRISVFRPGLRDVAYQYVKKGSRIYLEGKIDYGEYMDKNNVRRQATTIIADNIIFLSDQTKEKE
B4: sp¦P56192¦SYMC_HUMAN (protein, UniProt P56192 1-900, looked up)
Methionine--tRNA ligase, …: MRLFVSDGVPGCLPVLAAAGRARGRAEVLISTVGPEDCVVPFLTRPKVPVLQLDSGNYLFSTSAICRYFFLLSGWEQDDLTNQWLEWEATELQPALSAALYYLVVQGKKGEDVLGSVRRALTHIDHSLSRQNCPFLAGETESLADIVLWGALYPLLQDPAYLPEELSALHSWFQTLSTQEPCQRAAETVLKQQGVLALRPYLQKQPQPSPAEGRAVTNEPEEEELATLSEEEIAMAVTAWEKGLESLPPLRPQQNPVLPVAGERNVLITSALPYVNNVPHLGNIIGCVLSADVFARYSRLRQWNTLYLCGTDEYGTATETKALEEGLTPQEICDKYHIIHADIYRWFNISFDIFGRTTTPQQTKITQDIFQQLLKRGFVLQDTVEQLRCEHCARFLADRFVEGVCPFCGYEEARGDQCDKCGKLINAVELKKPQCKVCRSCPVVQSSQHLFLDLPKLEKRLEEWLGRTLPGSDWTPNAQFITRSWLRDGLKPRCITRDLKWGTPVPLEGFEDKVFYVWFDATIGYLSITANYTDQWERWWKNPEQVDLYQFMAKDNVPFHSLVFPCSALGAEDNYTLVSHLIATEYLNYEDGKFSKSRGVGVFGDMAQDTGIPADIWRFYLLYIRPEGQDSAFSWTDLLLKNNSELLNNLGNFINRAGMFVSKFFGGYVPEMVLTPDDQRLLAHVTLELQHYHQLLEKVRIRDALRSILTISRHGNQYIQVNEPWKRIKGSEADRQRAGTVTGLAVNIAALLSVMLQPYMPTVSATIQAQLQLPPPACSILLTNFLCTLPAGHQIGTVSPLFQKLENDQIESLRQRFGGGQAKTSPKPAVVETVTTAKPQQIQALMDEVTKQGNIVRELKAQKADKNEVAAEVAKLLDLKKQLAVAEGKPPEAPKGKKKK
B5: sp¦Q96I99¦SUCB2_HUMAN (protein, UniProt Q96I99 38-432, looked up)
Succinate--CoA ligase …: LNLQEYQSKKLMSDNGVRVQRFFVADTANEALEAAKRLNAKEIVLKAQILAGGRGKGVFNSGLKGGVHLTKDPNVVGQLAKQMIGYNLATKQTPKEGVKVNKVMVAEALDISRETYLAILMDRSCNGPVLVGSPQGGVDIEEVAASNPELIFKEQIDIFEGIKDSQAQRMAENLGFVGPLKSQAADQITKLYNLFLKIDATQVEVNPFGETPEGQVVCFDAKINFDDNAEFRQKDIFAMDDKSENEPIENEAAKYDLKYIGLDGNIACFVNGAGLAMATCDIIFLNGGKPANFLDLGGGVKEAQVYQAFKLLTADPKVEAILVNIFGGIVNCAIIANGITKACRELELKVPLVVRLEGTNVQEAQKILNNSGLPITSAIDLEDAAKKAVASVAKK
B6: sp¦Q13895¦BYST_HUMAN (protein, UniProt Q13895 1-437, looked up)
Bystin: MPKFKAARGVGGQEKHAPLADQILAGNAVRAGVREKRRGRGTGEAEEEYVGPRLSRRILQQARQQQEELEAEHGTGDKPAAPRERTTRLGPRMPQDGSDDEDEEWPTLEKAATMTAAGHHAEVVVDPEDERAIEMFMNKNPPARRTLADIIMEKLTEKQTEVETVMSEVSGFPMPQLDPRVLEVYRGVREVLSKYRSGKLPKAFKIIPALSNWEQILYVTEPEAWTAAAMYQATRIFASNLKERMAQRFYNLVLLPRVRDDVAEYKRLNFHLYMALKKALFKPGAWFKGILIPLCESGTCTLREAIIVGSIITKCSIPVLHSSAAMLKIAEMEYSGANSIFLRLLLDKKYALPYRVLDALVFHFLGFRTEKRELPVLWHQCLLTLVQRYKADLATDQKEALLELLRLQPHPQLSPEIRRELQSAVPRDVEDVPITVE
B7: sp¦P55060¦XPO2_HUMAN (protein, UniProt P55060 1-971, looked up)
Exportin-2: MELSDANLQTLTEYLKKTLDPDPAIRRPAEKFLESVEGNQNYPLLLLTLLEKSQDNVIKVCASVTFKNYIKRNWRIVEDEPNKICEADRVAIKANIVHLMLSSPEQIQKQLSDAISIIGREDFPQKWPDLLTEMVNRFQSGDFHVINGVLRTAHSLFKRYRHEFKSNELWTEIKLVLDAFALPLTNLFKATIELCSTHANDASALRILFSSLILISKLFYSLNFQDLPEFFEDNMETWMNNFHTLLTLDNKLLQTDDEEEAGLLELLKSQICDNAALYAQKYDEEFQRYLPRFVTAIWNLLVTTGQEVKYDLLVSNAIQFLASVCERPHYKNLFEDQNTLTSICEKVIVPNMEFRAADEEAFEDNSEEYIRRDLEGSDIDTRRRAACDLVRGLCKFFEGPVTGIFSGYVNSMLQEYAKNPSVNWKHKDAAIYLVTSLASKAQTQKHGITQANELVNLTEFFVNHILPDLKSANVNEFPVLKADGIKYIMIFRNQVPKEHLLVSIPLLINHLQAESIVVHTYAAHALERLFTMRGPNNATLFTAAEIAPFVEILLTNLFKALTLPGSSENEYIMKAIMRSFSLLQEAIIPYIPTLITQLTQKLLAVSKNPSKPHFNHYMFEAICLSIRITCKANPAAVVNFEEALFLVFTEILQNDVQEFIPYVFQVMSLLLETHKNDIPSSYMALFPHLLQPVLWERTGNIPALVRLLQAFLERGSNTIASAAADKIPGLLGVFQKLIASKANDHQGFYLLNSIIEHMPPESVDQYRKQIFILLFQRLQNSKTTKFIKSFLVFINLYCIKYGALALQEIFDGIQPKMFGMVLEKIIIPEIQKVSGNVEKKICAVGITKLLTECPPMMDTEYTKLWTPLLQSLIGLFELPEDDTIPDEEHFIDIEDTPGYQTAFSQLAFAGKKEHDPVGQMVNNPKIHLAQSLHKLSTACPGRVPSMVSTSLNAEALQYLQGYLQAASVTLL
B8: sp¦P34897¦GLYM_HUMAN (protein, UniProt P34897 30-504, looked up)
Serine …: NAAQTQTGEANRGWTGQESLSDSDPEMWELLQREKDRQCRGLELIASENFCSRAALEALGSCLNNKYSEGYPGKRYYGGAEVVDEIELLCQRRALEAFDLDPAQWGVNVQPYSGSPANLAVYTALLQPHDRIMGLDLPDGGHLTHGYMSDVKRISATSIFFESMPYKLNPKTGLIDYNQLALTARLFRPRLIIAGTSAYARLIDYARMREVCDEVKAHLLADMAHISGLVAAKVIPSPFKHADIVTTTTHKTLRGARSGLIFYRKGVKAVDPKTGREIPYTFEDRINFAVFPSLQGGPHNHAIAAVAVALKQACTPMFREYSLQVLKNARAMADALLERGYSLVSGGTDNHLVLVDLRPKGLDGARAERVLELVSITANKNTCPGDRSAITPGGLRLGAPALTSRQFREDDFRRVVDFIDEGVNIGLEVKSKTAKLQDFKSFLLKDSETSQRLANLRQRVEQFARAFPMPGFDEH
B9: sp¦Q6IBS0¦TWF2_HUMAN (protein, UniProt Q6IBS0 2-349, looked up)
Twinfilin-2: AHQTGIHATEELKEFFAKARAGSVRLIKVVIEDEQLVLGASQEPVGRWDQDYDRAVLPLLDAQQPCYLLYRLDSQNAQGFEWLFLAWSPDNSPVRLKMLYAATRATVKKEFGGGHIKDELFGTVKDDLSFAGYQKHLSSCAAPAPLTSAERELQQIRINEVKTEISVESKHQTLQGLAFPLQPEAQRALQQLKQKMVNYIQMKLDLERETIELVHTEPTDVAQLPSRVPRDAARYHFFLYKHTHEGDPLESVVFIYSMPGYKCSIKERMLYSSCKSRLLDSVEQDFHLEIAKKIEIGDGAELTAEFLYDEVHPKQHAFKQAFAKPKGPGGKRGHKRLIRGPGENGDDS

In this assay the test system is human HL60 cells. Put plainly: SWATH-MS proteomics, differential protein representation, akirin2 KO vs WT HL60 cells. In kind it is cell-based. The settings on record: akirin2 KO vs WT HL60 cells; sheet "Under-represented in KO". The method in brief:
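WT and akirin2 KO HL60 lysates (150 µg, n=3 biological replicates) were FASP trypsin-digested and desalted. A spectral library was built by IDA from 3 µg digests, then 5 µg per sample went to variable-window SWATH DIA over a 120-min 5–30% acetonitrile gradient. Identifications were accepted at 1% global FDR, with total-area-sum normalization.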
With B1, the “Fold Change” value came out at 0.6622 and the “Log (Fold Change)” value was -0.179.

As to B2, the “Fold Change” value stood at 0.6681 and the “Log (Fold Change)” value is recorded as -0.1751.

As for B3, the “Fold Change” value is reported as 0.6781 and the “Log (Fold Change)” value is given as -0.1687.

With B4, the “Fold Change” value turned out to be 0.6651 and the “Log (Fold Change)” value was -0.1771.

For B5, the “Fold Change” value worked out at 0.6651 and the “Log (Fold Change)” value is reported as -0.1771.

Regarding B6, the “Fold Change” value is reported as 0.6611 and the “Log (Fold Change)” value was -0.1797.

On to B7, for which the “Fold Change” value stood at 0.6591 and the “Log (Fold Change)” value is -0.1811.

In the case of B8, the “Fold Change” value is listed as 0.6722 and the “Log (Fold Change)” value was -0.1725.

For B9, the “Fold Change” value worked out at 0.6717 and the “Log (Fold Change)” value is on record as -0.1728.
